This note sets out measurements from paper PMC10786891, “Massively parallel profiling of RNA-targeting CRISPR-Cas13d”.

First the molecules themselves.
B1: target 1 insA 3' of 12,insC 3' of 3 (mixed)
RNA 1: CACCCGUGCAAAAAUGCAGGGGUCUAAAACUGAGCGGAUAACCUCUCUAUGG
RNA 2: GGGAAUGGAUCCACAUCUACGAAUUCGUACCAUAGAGAGGAUUAUCCGCUCCACCGAGAUCGGAAGAGCACACGU
B2: target 1 C2G,G15C (mixed)
RNA 1: CACCCGUGCAAAAAUGCAGGGGUCUAAAACUGAGCGGAUAACCUCUCUAUGG
RNA 2: GGGAAUGGAUCCACAUCUACGAAUUCGUACCAUAGACAGGUUAUCCGCUGACCGAGAUCGGAAGAGCACACGU
B3: target 2 MT 5'PFS UCA 3'PFS UCC (mixed)
RNA 1: CACCCGUGCAAAAUUGCAGGGGUCUAAAACCUUCUCCAAAUUGUUUCAUCCU
RNA 2: GGGAAUGGAUCCACAUCUACGAAUUCUCAAGGAUGAAACAAUUUGGAGAAGUCCAGAUCGGAAGAGCACACGU
B4: target 2 MT 5'PFS AGC 3'PFS AAU (mixed)
RNA 1: CACCCGUGCAAAAUUGCAGGGGUCUAAAACCUUCUCCAAAUUGUUUCAUCCU
RNA 2: GGGAAUGGAUCCACAUCUACGAAUUCAGCAGGAUGAAACAAUUUGGAGAAGAAUAGAUCGGAAGAGCACACGU
B5: target 2 MT 5'PFS AAG 3'PFS UCG (mixed)
RNA 1: CACCCGUGCAAAAUUGCAGGGGUCUAAAACCUUCUCCAAAUUGUUUCAUCCU
RNA 2: GGGAAUGGAUCCACAUCUACGAAUUCAAGAGGAUGAAACAAUUUGGAGAAGUCGAGAUCGGAAGAGCACACGU
B6: target 2 MT 5'PFS CUC 3'PFS UCC (mixed)
RNA 1: CACCCGUGCAAAAUUGCAGGGGUCUAAAACCUUCUCCAAAUUGUUUCAUCCU
RNA 2: GGGAAUGGAUCCACAUCUACGAAUUCCUCAGGAUGAAACAAUUUGGAGAAGUCCAGAUCGGAAGAGCACACGU
B7: target 2 MT 5'PFS AGA 3'PFS CGA (mixed)
RNA 1: CACCCGUGCAAAAUUGCAGGGGUCUAAAACCUUCUCCAAAUUGUUUCAUCCU
RNA 2: GGGAAUGGAUCCACAUCUACGAAUUCAGAAGGAUGAAACAAUUUGGAGAAGCGAAGAUCGGAAGAGCACACGU
B8: target 2 MT 5'PFS AGA 3'PFS CGG (mixed)
RNA 1: CACCCGUGCAAAAUUGCAGGGGUCUAAAACCUUCUCCAAAUUGUUUCAUCCU
RNA 2: GGGAAUGGAUCCACAUCUACGAAUUCAGAAGGAUGAAACAAUUUGGAGAAGCGGAGAUCGGAAGAGCACACGU
B9: target 2 MT 5'PFS AAC 3'PFS AAU (mixed)
RNA 1: CACCCGUGCAAAAUUGCAGGGGUCUAAAACCUUCUCCAAAUUGUUUCAUCCU
RNA 2: GGGAAUGGAUCCACAUCUACGAAUUCAACAGGAUGAAACAAUUUGGAGAAGAAUAGAUCGGAAGAGCACACGU
B10: target 2 MT 5'PFS CUC 3'PFS UCA (mixed)
RNA 1: CACCCGUGCAAAAUUGCAGGGGUCUAAAACCUUCUCCAAAUUGUUUCAUCCU
RNA 2: GGGAAUGGAUCCACAUCUACGAAUUCCUCAGGAUGAAACAAUUUGGAGAAGUCAAGAUCGGAAGAGCACACGU
B11: target 2 MT 5'PFS ACA 3'PFS UGU (mixed)
RNA 1: CACCCGUGCAAAAUUGCAGGGGUCUAAAACCUUCUCCAAAUUGUUUCAUCCU
RNA 2: GGGAAUGGAUCCACAUCUACGAAUUCACAAGGAUGAAACAAUUUGGAGAAGUGUAGAUCGGAAGAGCACACGU
B12: target 2 MT 5'PFS UAC 3'PFS ACA (mixed)
RNA 1: CACCCGUGCAAAAUUGCAGGGGUCUAAAACCUUCUCCAAAUUGUUUCAUCCU
RNA 2: GGGAAUGGAUCCACAUCUACGAAUUCUACAGGAUGAAACAAUUUGGAGAAGACAAGAUCGGAAGAGCACACGU
B13: target 2 MT 5'PFS CAA 3'PFS AUA (mixed)
RNA 1: CACCCGUGCAAAAUUGCAGGGGUCUAAAACCUUCUCCAAAUUGUUUCAUCCU
RNA 2: GGGAAUGGAUCCACAUCUACGAAUUCCAAAGGAUGAAACAAUUUGGAGAAGAUAAGAUCGGAAGAGCACACGU
B14: target 2 MT 5'PFS GUA 3'PFS CAU (mixed)
RNA 1: CACCCGUGCAAAAUUGCAGGGGUCUAAAACCUUCUCCAAAUUGUUUCAUCCU
RNA 2: GGGAAUGGAUCCACAUCUACGAAUUCGUAAGGAUGAAACAAUUUGGAGAAGCAUAGAUCGGAAGAGCACACGU
B15: target 2 MT 5'PFS GCG 3'PFS CCG (mixed)
RNA 1: CACCCGUGCAAAAUUGCAGGGGUCUAAAACCUUCUCCAAAUUGUUUCAUCCU
RNA 2: GGGAAUGGAUCCACAUCUACGAAUUCGCGAGGAUGAAACAAUUUGGAGAAGCCGAGAUCGGAAGAGCACACGU
B16: target 2 MT 5'PFS CUC 3'PFS UCU (mixed)
RNA 1: CACCCGUGCAAAAUUGCAGGGGUCUAAAACCUUCUCCAAAUUGUUUCAUCCU
RNA 2: GGGAAUGGAUCCACAUCUACGAAUUCCUCAGGAUGAAACAAUUUGGAGAAGUCUAGAUCGGAAGAGCACACGU
B17: target 2 MT 5'PFS AUC 3'PFS AUG (mixed)
RNA 1: CACCCGUGCAAAAUUGCAGGGGUCUAAAACCUUCUCCAAAUUGUUUCAUCCU
RNA 2: GGGAAUGGAUCCACAUCUACGAAUUCAUCAGGAUGAAACAAUUUGGAGAAGAUGAGAUCGGAAGAGCACACGU
B18: target 2 MT 5'PFS GUU 3'PFS CGU (mixed)
RNA 1: CACCCGUGCAAAAUUGCAGGGGUCUAAAACCUUCUCCAAAUUGUUUCAUCCU
RNA 2: GGGAAUGGAUCCACAUCUACGAAUUCGUUAGGAUGAAACAAUUUGGAGAAGCGUAGAUCGGAAGAGCACACGU
B19: target 2 MT 5'PFS AAA 3'PFS ACU (mixed)
RNA 1: CACCCGUGCAAAAUUGCAGGGGUCUAAAACCUUCUCCAAAUUGUUUCAUCCU
RNA 2: GGGAAUGGAUCCACAUCUACGAAUUCAAAAGGAUGAAACAAUUUGGAGAAGACUAGAUCGGAAGAGCACACGU
B20: target 2 MT 5'PFS CGG 3'PFS UCA (mixed)
RNA 1: CACCCGUGCAAAAUUGCAGGGGUCUAAAACCUUCUCCAAAUUGUUUCAUCCU
RNA 2: GGGAAUGGAUCCACAUCUACGAAUUCCGGAGGAUGAAACAAUUUGGAGAAGUCAAGAUCGGAAGAGCACACGU
B21: target 2 MT 5'PFS AAU 3'PFS AGA (mixed)
RNA 1: CACCCGUGCAAAAUUGCAGGGGUCUAAAACCUUCUCCAAAUUGUUUCAUCCU
RNA 2: GGGAAUGGAUCCACAUCUACGAAUUCAAUAGGAUGAAACAAUUUGGAGAAGAGAAGAUCGGAAGAGCACACGU
B22: target 2 MT 5'PFS ACA 3'PFS UGA (mixed)
RNA 1: CACCCGUGCAAAAUUGCAGGGGUCUAAAACCUUCUCCAAAUUGUUUCAUCCU
RNA 2: GGGAAUGGAUCCACAUCUACGAAUUCACAAGGAUGAAACAAUUUGGAGAAGUGAAGAUCGGAAGAGCACACGU
B23: target 2 MT 5'PFS CAA 3'PFS AUC (mixed)
RNA 1: CACCCGUGCAAAAUUGCAGGGGUCUAAAACCUUCUCCAAAUUGUUUCAUCCU
RNA 2: GGGAAUGGAUCCACAUCUACGAAUUCCAAAGGAUGAAACAAUUUGGAGAAGAUCAGAUCGGAAGAGCACACGU
B24: target 2 MT 5'PFS UAC 3'PFS ACC (mixed)
RNA 1: CACCCGUGCAAAAUUGCAGGGGUCUAAAACCUUCUCCAAAUUGUUUCAUCCU
RNA 2: GGGAAUGGAUCCACAUCUACGAAUUCUACAGGAUGAAACAAUUUGGAGAAGACCAGAUCGGAAGAGCACACGU
B25: target 2 MT 5'PFS AAU 3'PFS AGU (mixed)
RNA 1: CACCCGUGCAAAAUUGCAGGGGUCUAAAACCUUCUCCAAAUUGUUUCAUCCU
RNA 2: GGGAAUGGAUCCACAUCUACGAAUUCAAUAGGAUGAAACAAUUUGGAGAAGAGUAGAUCGGAAGAGCACACGU
B26: target 2 MT 5'PFS AGU 3'PFS CGU (mixed)
RNA 1: CACCCGUGCAAAAUUGCAGGGGUCUAAAACCUUCUCCAAAUUGUUUCAUCCU
RNA 2: GGGAAUGGAUCCACAUCUACGAAUUCAGUAGGAUGAAACAAUUUGGAGAAGCGUAGAUCGGAAGAGCACACGU
B27: target 2 MT 5'PFS UAC 3'PFS ACG (mixed)
RNA 1: CACCCGUGCAAAAUUGCAGGGGUCUAAAACCUUCUCCAAAUUGUUUCAUCCU
RNA 2: GGGAAUGGAUCCACAUCUACGAAUUCUACAGGAUGAAACAAUUUGGAGAAGACGAGAUCGGAAGAGCACACGU

By Kd is commonly meant the constant that tells how readily two partners part at equilibrium. Read a low Kd as higher affinity.

The target in this data set is T1, EsCas13d, nuclease-dead (Eubacterium siraeum, UniProt B0MS50, R295A;H300A;R849A;H854A).
T1 sequence: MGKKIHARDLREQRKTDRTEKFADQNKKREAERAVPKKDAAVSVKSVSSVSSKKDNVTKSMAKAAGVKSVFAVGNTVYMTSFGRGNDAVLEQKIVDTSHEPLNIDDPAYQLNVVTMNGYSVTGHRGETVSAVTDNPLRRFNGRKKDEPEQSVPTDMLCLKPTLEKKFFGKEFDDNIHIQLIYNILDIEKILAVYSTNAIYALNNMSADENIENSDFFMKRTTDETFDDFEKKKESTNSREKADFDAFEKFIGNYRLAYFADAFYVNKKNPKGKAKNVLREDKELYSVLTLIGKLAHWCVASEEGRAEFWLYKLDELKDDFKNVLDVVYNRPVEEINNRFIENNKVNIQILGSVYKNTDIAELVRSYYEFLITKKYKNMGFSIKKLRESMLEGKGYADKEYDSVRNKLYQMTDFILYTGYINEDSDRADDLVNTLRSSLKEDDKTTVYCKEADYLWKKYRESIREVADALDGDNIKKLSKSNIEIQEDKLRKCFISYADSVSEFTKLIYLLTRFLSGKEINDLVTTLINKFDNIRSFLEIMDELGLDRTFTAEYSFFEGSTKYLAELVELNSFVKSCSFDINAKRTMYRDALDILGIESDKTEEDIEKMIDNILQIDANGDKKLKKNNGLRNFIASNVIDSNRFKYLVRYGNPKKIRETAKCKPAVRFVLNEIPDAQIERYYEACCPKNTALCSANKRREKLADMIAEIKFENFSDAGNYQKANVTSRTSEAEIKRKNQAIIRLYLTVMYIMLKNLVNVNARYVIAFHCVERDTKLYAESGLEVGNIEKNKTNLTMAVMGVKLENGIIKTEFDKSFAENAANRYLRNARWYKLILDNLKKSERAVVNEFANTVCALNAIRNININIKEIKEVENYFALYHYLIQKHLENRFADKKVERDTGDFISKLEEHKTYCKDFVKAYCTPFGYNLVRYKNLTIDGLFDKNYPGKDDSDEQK
In words: crRNA (strand 1, pre-loaded); Mg2+; 40 mM Tris-HCl pH 7.5, 150 mM NaCl, 6 mM MgCl2, 1 mM DTT, 0.1% Tween-20, 0.2 mg/ml BSA; 25 C; 10 min per concentration, then washed. As to conditions: tags: His6-TwinStrep-SUMO cleaved; N-terminal SNAP kept (SNAP-Surface 488); label: 3' end held by stalled T7 RNA polymerase.
Take B1: binding was characterised by a dissociation constant (Kd) of 26.6 ± 3 nM. B2: binding was put at a Kd of 35.8 ± 3.1 nM. The Kd values of the last two molecules are within 1.5-fold of each other.

Take B3: the Kd was 5.7 ± 0.8 nM. This Kd is about 6.3-fold lower than that of the molecule before.

In the case of B4, the Kd is 7.1 ± 1.4 nM. B5 came in with a Kd of 4.4 ± 0.7 nM.

As to B6, the Kd was 5.3 ± 0.9 nM.

As for B7, the Kd came to 5.5 ± 0.8 nM. To B8 belongs 5.2 ± 0.6 nM; to B9, 6.1 ± 1.5 nM; to B10, 3.3 ± 0.5 nM. In the case of B11 it was 9.6 ± 2.5 nM; in that of B12, 4.9 ± 1.2 nM; in that of B13, 5.5 ± 1.8 nM.

B14 came in with a Kd of 6.3 ± 0.5 nM.

For the molecule B15, the Kd came to 12.2 ± 1 nM. Molecule B16 had a Kd of 5 ± 0.6 nM.

In turn, B17 had a Kd of around 70 nM. In the case of B18 it was 12.9 ± 0.9 nM; in that of B19, 9.5 ± 2.9 nM; in that of B20, 11 ± 5 nM.

B21: the Kd was found to be 3.3 ± 0.5 nM.

B22 came in with a Kd of 7 ± 1.5 nM. Against the preceding molecule, the Kd is about 2.1-fold higher. To B23 belongs 2.4 ± 1.1 nM; to B24, 9.8 ± 2.1 nM. In the case of B25 it was 4.9 ± 0.5 nM. In the case of B26 it was 13.9 ± 2.3 nM; in that of B27, 5.6 ± 1.3 nM.
